Data: patent US20240117030A1 (Pfizer, published 2024)
Like-named read-outs stand apart in the source and are kept apart here.

T1: human IL-4 (human, UniProt P05112 25-153)
T1 sequence (looked up): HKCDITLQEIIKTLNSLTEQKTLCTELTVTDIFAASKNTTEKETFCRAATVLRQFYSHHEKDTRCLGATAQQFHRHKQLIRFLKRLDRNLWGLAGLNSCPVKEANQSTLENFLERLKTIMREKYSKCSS


Columns and labels:
Assay in all cases: cell-based or functional assay
human IL-13 = human IL-13 (human, UniProt P35225 35-146)
human IL-4 [1] = target: T1, human IL-4
human IL-4 [2] = target: T1, human IL-4; remark: listed apart in the source

human IL-13, sequence (P35225 35-146 limits assumed, form in doubt): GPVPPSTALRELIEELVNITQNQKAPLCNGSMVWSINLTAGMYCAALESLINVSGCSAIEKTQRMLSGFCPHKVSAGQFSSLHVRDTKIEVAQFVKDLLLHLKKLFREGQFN

Row | CD23: Fold bioactivity relative to IL4-0002 (human IL-4 [1]) [fold] | CD23 IC50 [pM] (human IL-4 [1]) | CD23: Fold bioactivity relative to IL4-1285 (human IL-4 [2]) [fold] | CD23 IC50 [pM] (human IL-4 [2]) | Binder | also measured
1 | – | – | 2.1 | 44.9 | IL4-1356 (antibody, IgG1, V domains shown) VH: QVTLRESGPALVKPTQTLTLTCTFSGFSLLTFGSGVSWIRQPPGKGLEWLAHIYWDDDKRYNPSLKSRLTISKDTSRNQVVLTMTNMDPVDTATYYCARRETVFYWYFDVWGRGTPVTVSS VL: DIQMTQSPSSLSASVGDRVTITCKASQSVDEDGDSYMNWYQQKPGKAPKLLIYAASNLESGVPSRFSGSGSGTDFTLTISSLQPEDFATYYCQQSNEDPPTFGGGTKVEIK | –
2 | – | – | 5.7 | 16.8 | IL4-1358 (antibody, IgG1, V domains shown) VH: QVTLRESGPALVKPTQTLTLTCTFSGFSLSTWGEGVSWIRQPPGKGLEWLAHIYWDDDKRYNPSLKSRLTISKDTSRNQVVLTMTNMDPVDTATYYCARRETVFYWYFDVWGRGTPVTVSS VL: DIQMTQSPSSLSASVGDRVTITCKASQSVDEDGDSYMNWYQQKPGKAPKLLIYAASNLESGVPSRFSGSGSGTDFTLTISSLQPEDFATYYCQQSNEDPPTFGGGTKVEIK | –
3 | – | – | 4.9 | 19.6 | IL4-1352 (antibody, IgG1, V domains shown) VH: QVTLRESGPALVKPTQTLTLTCTFSGFSLSNWGMGVSWIRQPPGKGLEWLAHIYWDDDKRYNPSLKSRLTISKDTSRNQVVLTMTNMDPVDTATYYCARRETVFYWYFDVWGRGTPVTVSS VL: DIQMTQSPSSLSASVGDRVTITCKASQSVDEDGDSYMNWYQQKPGKAPKLLIYAASNLESGVPSRFSGSGSGTDFTLTISSLQPEDFATYYCQQSNEDPPTFGGGTKVEIK | –

The remaining lines, values behind:

Row | Binder | CD23: Fold bioactivity relative to IL4-0002 (human IL-4 [1]) [fold] | CD23 IC50 [pM] (human IL-4 [1]) | CD23: Fold bioactivity relative to IL4-1285 (human IL-4 [2]) [fold] | CD23 IC50 [pM] (human IL-4 [2]) | also measured
4 | IL13-1338 (antibody, IgG1, V domains shown) VH: EVQLVESGGGLVQPGGSLRLSCAASGFTFSSYAMSWVRQAPGKGLEWVASISSGDTTYYPDSVKGRFTISRDNAKNSLYLQMNSLRAEDTAVYYCARNEGYYFGLTLWGQGTLVTVSS VL: DIQMTQSPSSLSASVGDRVTITCKASESVDHSGSSLMHWYQQKPGKAPKLLIYRASNLESGVPSRFSGSGSGTDFTLTISSLQPEDFATYYCQQSNEDPWTFGGGTKVEIK | – | – | – | – | CD23: Fold bioactivity relative to IL13-0001 (human IL-13): 0.9 fold; CD23: Fold bioactivity relative to IL13-1307 (human IL-13): 26.5 fold; CD23 IC50 [pM] (human IL-13): 11.5 pM; pSTAT6: Fold bioactivity relative to IL13-0001 (human IL-13): 1.1 fold; pSTAT6: Fold bioactivity relative to IL13-1307 (human IL-13): 1.6 fold; pSTAT6 IC50 [pM] (human IL-13): 87 pM
5 | IL4-0002 (antibody, human IgG1, kappa) heavy: EVTLRESGPALVKPTQTLTLTCTFSGFSLSNFGEGLSWIRQPPGKGLEWLAHIYWDDDKRYNPSLKSRLTISKDTSRNQVVLTMTNMDPVDTATYYCARRETVFYWYFDVWGQGTTVTVSSASTKGPSVFPLAPSSKSTSGGTAALGCLVKDYFPEPVTVSWNSGALTSGVHTFPAVLQSSGLYSLSSVVTVPSSSLGTQTYICNVNHKPSNTKVDKKVEPKSCDKTHTCPPCPAPEAAGAPSVFLFPPKPKDTLMISRTPEVTCVVVDVSHEDPEVKFNWYVDGVEVHNAKTKPREEQYNSTYRVVSVLTVLHQDWLNGKEYKCKVSNKALPAPIEKTISKAKGQPREPQVYTLPPSREEMTKNQVSLTCLVKGFYPSDIAVEWESNGQPENNYKTTPPVLDSDGSFFLYSKLTVDKSRWQQGNVFSCSVMHEALHNHYTQKSLSLSPGK light: DIQMTQSPSSLSASVGDRVTITCKASQSVDEDGDSYMNWYQQKPGKAPKLLIYAASNLESGVPSRFSGSGSGTDFTLTISSLQPEDFATYYCQQSNEDPPTFGGGTKVEIKRTVAAPSVFIFPPSDEQLKSGTASVVCLLNNFYPREAKVQWKVDNALQSGNSQESVTEQDSKDSTYSLSSTLTLSKADYEKHKVYACEVTHQGLSSPVTKSFNRGEC | 1 | 2.1 | – | – | –
6 | IL4-1347 (antibody, human IgG1, kappa, V domains shown) VH: QVTLRESGPALVKPTQTLTLTCTFSGFSLSTSGMGVSWIRQPPGKGLEWLAHIYWDDDKRYNPSLKSRLTISKDTSRNQVVLTMTNMDPVDTATYYCARRETVFYWYFDVWGRGTPVTVSS VL: DIQMTQSPSSLSASVGDRVTITCKASQSVDEDGDSYMNWYQQKPGKAPKLLIYAASNLESGVPSRFSGSGSGTDFTLTISSLQPEDFATYYCQQSNEDPPTFGGGTKVEIKR | – | – | 1.5 | 65.2 | –
7 | IL4-1350 (antibody, IgG1, V domains shown) VH: QVTLRESGPALVKPTQTLTLTCTFSGFSLSTWGSGVSWIRQPPGKGLEWLAHIYWDDDKRYNPSLKSRLTISKDTSRNQVVLTMTNMDPVDTATYYCARRETVFYWYFDVWGRGTPVTVSS VL: DIQMTQSPSSLSASVGDRVTITCKASQSVDEDGDSYMNWYQQKPGKAPKLLIYAASNLESGVPSRFSGSGSGTDFTLTISSLQPEDFATYYCQQSNEDPPTFGGGTKVEIK | – | – | 5.4 | 17.9 | –
8 | IL4-1040 (antibody, human IgG1, kappa, V domains shown) VH: EVTLRESGPALVKPTQTLTLTCTFSGFSLSNFGEGLSWIRQPPGKGLEWLAHIYWDDDKRYNPSLKSRLTISKDTSRNQVVLTMTNMDPVDTATYYCARRETVFYWYFDVWGQGTTVTVSS VL: DIQMTQSPSSLSASVGDRVTITCRASQSVDEEGDSYMNWYQQKPGKAPKLLIYAASNLESGVPSRFSGSGSGTDFTLTISSLQPEDFATYYCQQSNKDPPTFGGGTKVEIKR | 0.7 | 3.2 | – | – | –
9 | IL4-0157 (antibody, IgG1, V domains shown) VH: EVTLRESGPALVKPTQTLTLTCTFSGFSLSNFGEGLSWIRQPPGKGLEWLAHIYWDDDKRYSTSLKTRLTISKDTSRNQVVLTMTNMDPVDTATYYCARRETVFYWYFDVWGQGTTVTVSS VL: DIQMTQSPSSLSASVGDRVTITCRASQSVDEEGDSYMNWYQQKPGKAPKLLIYAASNLESGVPSRFSGSGSGTDFTLTISSLQPEDFATYYCQQSHKDPPTFGGGTKVEIK | 0.2 | 9.3 | – | – | –
10 | IL13-1308 (antibody, IgG1, V domains shown) VH: EVQLVESGGGLVQPGGSLRLSCAASGFTFSSYAMSWVRQAPGKGLEWVASISSGDTTYYPDSVKGRFTISRDNAKNSLYLQMNSLRAEDTAVYYCARLDGYYFGFPYWGQGTLVTVSS VL: DIQMTQSPSSLSASVGDRVTITCKASESVDHFGWSLVHWYQQKPGKAPKLLIYRASNLESGVPSRFSGSGSGTDFTLTISSLQPEDFATYYCQQSNEDPWTFGGGTKVEIKR | – | – | – | – | CD23: Fold bioactivity relative to IL13-0001 (human IL-13): 0.7 fold; CD23: Fold bioactivity relative to IL13-1307 (human IL-13): 21.3 fold; CD23 IC50 [pM] (human IL-13): 14.4 pM; pSTAT6: Fold bioactivity relative to IL13-0001 (human IL-13): 2.2 fold; pSTAT6: Fold bioactivity relative to IL13-1307 (human IL-13): 3.3 fold; pSTAT6 IC50 [pM] (human IL-13): 42.7 pM
11 | IL4-0037 (antibody, IgG1, V domains shown) VH: EVTLRESGPALVKPTQTLTLTCTFSGFSLSNFGEGLSWIRQPPGKGLEWLAHIYWDDDKRYSTSLKTRLTISKDTSRNQVVLTMTNMDPVDTATYYCARRETVFYWYFDVWGQGTTVTVSS VL: DIQMTQSPSSLSASVGDRVTITCKASQSVDEDGDSYMNWYQQKPGKAPKLLIYAASNLESGVPSRFSGSGSGTDFTLTISSLQPEDFATYYCQQSNEDPPTFGGGTKVEIK | 1.3 | 1.6 | – | – | –
12 | IL4-0749 (antibody, human IgG1, kappa, V domains shown) VH: EVTLRESGPALVKPTQTLTLTCTFSGFSLSNFGEGLSWIRQPPGKGLEWLAHIYWDDDKRYNPSLKSRLTISKDTSRNQVVLTMTNMDPVDTATYYCARRETVFYWYFDVWGQGTTVTVSS VL: DIQMTQSPSSLSASVGDRVTITCRASQSVDEEGDSYMNWYQQKPGKAPKLLIYAASNLESGVPSRFSGSGSGTDFTLTISSLQPEDFATYYCQQSNEDPPTFGGGTKVEIKR | 0.9 | 2.4 | – | – | –
